Among the data in patent US6512097 are Kd and koff values, retold here.

Usually Kd stands for the free concentration of one partner at which half of the binding sites on the other are occupied at equilibrium, for simple one-to-one binding. Lower therefore signals tighter binding. In general, koff refers to a measure of how fast the partners let go of each other. Low readings indicate a long-lived complex, high ones a short-lived complex.

The labels stand for the following.
B1: C6HL3-10 (scFv)
scFv: QVQLLQSGAELKKPGESLKISCKGSGYSFTSYWIAWVRQMPGKGLEYMGLIYPGDSDTKYSPSFQGQVTISVDKSVSTAYLQWSSLKPSDSAVYFCARHDVGYCSSSNCAKWPEYFQHWGQGTLVTVSSGGGGSGGGGSGGGGSQSVLTQPPSVSAAPGQKVTISCSGSSSNIGNNYVSWYQQLPGTAPKLLIYGHTNRPAGVPDRFSGSKSGTSASLAISGFRSEDEADYYCAAWEDPWYGWVFGGGTKLTVLG
notes: label as printed (probably C6ML3-10)
B2: C6ML3-3 (scFv)
scFv: QVQLLQSGAELKKPGESLKISCKGSGYSFTSYWIAWVRQMPGKGLEYMGLIYPGDSDTKYSPSFQGQVTISVDKSVSTAYLQWSSLKPSDSAVYFCARHDVGYCSSSNCAKWPEYFQHWGQGTLVTVSSGGGGSGGGGSGGGGSQSVLTQPPSVSAAPGQKVTISCSGSSSNIGNNYVSWYQQLPGTAPKLLIYGHTNRPAGVPDRFSGSKSGTSASLAISGFRSEDEADYYCATWDYALSGWVFGGGTKLTVLG
B3: C6ML3-2 (scFv)
scFv: QVQLLQSGAELKKPGESLKISCKGSGYSFTSYWIAWVRQMPGKGLEYMGLIYPGDSDTKYSPSFQGQVTISVDKSVSTAYLQWSSLKPSDSAVYFCARHDVGYCSSSNCAKWPEYFQHWGQGTLVTVSSGGGGSGGGGSGGGGSQSVLTQPPSVSAAPGQKVTISCSGSSSNIGNNYVSWYQQLPGTAPKLLIYGHTNRPAGVPDRFSGSKSGTSASLAISGFRSEDEADYYCAAWDHSLSGWVFGGGTKLTVLG
B4: C6ML3-1 (scFv)
scFv: QVQLLQSGAELKKPGESLKISCKGSGYSFTSYWIAWVRQMPGKGLEYMGLIYPGDSDTKYSPSFQGQVTISVDKSVSTAYLQWSSLKPSDSAVYFCARHDVGYCSSSNCAKWPEYFQHWGQGTLVTVSSGGGGSGGGGSGGGGSQSVLTQPPSVSAAPGQKVTISCSGSSSNIGNNYVSWYQQLPGTAPKLLIYGHTNRPAGVPDRFSGSKSGTSASLAISGFRSEDEADYYCAAWDYSLWGWVFGGGTKLTVLG
B5: C6MH3-D6 (scFv)
scFv: QVQLLQSGAELKKPGESLKISCKGSGYSFTSYWIAWVRQMPGKGLEYMGLIYPGDSDTKYSPSFQGQVTISVDKSVSTAYLQWSSLKPSDSAVYFCARHDVGYCSSSNCAKWPEWMYPWGQGTLVTVSSGGGGSGGGGSGGGGSQSVLTQPPSVSAAPGQKVTISCSGSSSNIGNNYVSWYQQLPGTAPKLLIYGHTNRPAGVPDRFSGSKSGTSASLAISGFRSEDEADYYCASWDYTLSGWVFGGGTKLTVLG
notes: C6ML3-9 sFv, VH CDR3 library D mutant
B6: C6ML3-A3 (scFv)
scFv: QVQLLQSGAELKKPGESLKISCKGSGYSFTSYWIAWVRQMPGKGLEYMGLIYPGDSDTKYSPSFQGQVTISVDKSVSTAYLQWSSLKPSDSAVYFCARHDVGYCSSSDCAKWPEYFQHWGQGTLVTVSSGGGGSGGGGSGGGGSQSVLTQPPSVSAAPGQKVTISCSGSSSNIGNNYVSWYQQLPGTAPKLLIYGHTNRPAGVPDRFSGSKSGTSASLAISGFRSEDEADYYCASWDYTLSGWVFGGGTKLTVLG
B7: C6ML3-25 (scFv)
scFv: QVQLLQSGAELKKPGESLKISCKGSGYSFTSYWIAWVRQMPGKGLEYMGLIYPGDSDTKYSPSFQGQVTISVDKSVSTAYLQWSSLKPSDSAVYFCARHDVGYCSSSNCAKWPEYFQHWGQGTLVTVSSGGGGSGGGGSGGGGSQSVLTQPPSVSAAPGQKVTISCSGSSSNIGNNYVSWYQQLPGTAPKLLIYGHTNRPAGVPDRFSGSKSGTSASLAISGFRSEDEADYYCAAWDNRHSGWVFGGGTKLTVLG
B8: C6ML3-16 (scFv)
scFv: QVQLLQSGAELKKPGESLKISCKGSGYSFTSYWIAWVRQMPGKGLEYMGLIYPGDSDTKYSPSFQGQVTISVDKSVSTAYLQWSSLKPSDSAVYFCARHDVGYCSSSNCAKWPEYFQHWGQGTLVTVSSGGGGSGGGGSGGGGSQSVLTQPPSVSAAPGQKVTISCSGSSSNIGNNYVSWYQQLPGTAPKLLIYGHTNRPAGVPDRFSGSKSGTSASLAISGFRSEDEADYYCASWDYYRSGWVFGGGTKLTVLG
B9: C6ML3-17 (scFv)
scFv: QVQLLQSGAELKKPGESLKISCKGSGYSFTSYWIAWVRQMPGKGLEYMGLIYPGDSDTKYSPSFQGQVTISVDKSVSTAYLQWSSLKPSDSAVYFCARHDVGYCSSSNCAKWPEYFQHWGQGTLVTVSSGGGGSGGGGSGGGGSQSVLTQPPSVSAAPGQKVTISCSGSSSNIGNNYVSWYQQLPGTAPKLLIYGHTNRPAGVPDRFSGSKSGTSASLAISGFRSEDEADYYCASWDYYRSGWVFGGGTKLTVLG
B10: C6ML3-22 (scFv)
scFv: QVQLLQSGAELKKPGESLKISCKGSGYSFTSYWIAWVRQMPGKGLEYMGLIYPGDSDTKYSPSFQGQVTISVDKSVSTAYLQWSSLKPSDSAVYFCARHDVGYCSSSNCAKWPEYFQHWGQGTLVTVSSGGGGSGGGGSGGGGSQSVLTQPPSVSAAPGQKVTISCSGSSSNIGNNYVSWYQQLPGTAPKLLIYGHTNRPAGVPDRFSGSKSGTSASLAISGFRSEDEADYYCAAWDASLSGWVFGGGTKLTVLG
B11: C6ML3-20 (scFv)
scFv: QVQLLQSGAELKKPGESLKISCKGSGYSFTSYWIAWVRQMPGKGLEYMGLIYPGDSDTKYSPSFQGQVTISVDKSVSTAYLQWSSLKPSDSAVYFCARHDVGYCSSSNCAKWPEYFQHWGQGTLVTVSSGGGGSGGGGSGGGGSQSVLTQPPSVSAAPGQKVTISCSGSSSNIGNNYVSWYQQLPGTAPKLLIYGHTNRPAGVPDRFSGSKSGTSASLAISGFRSEDEADYYCAAWEQSLWGWVFGGGTKLTVLG
B12: C6ML3-26 (scFv)
scFv: QVQLLQSGAELKKPGESLKISCKGSGYSFTSYWIAWVRQMPGKGLEYMGLIYPGDSDTKYSPSFQGQVTISVDKSVSTAYLQWSSLKPSDSAVYFCARHDVGYCSSSNCAKWPEYFQHWGQGTLVTVSSGGGGSGGGGSGGGGSQSVLTQPPSVSAAPGQKVTISCSGSSSNIGNNYVSWYQQLPGTAPKLLIYGHTNRPAGVPDRFSGSKSGTSASLAISGFRSEDEADYYCAAWDDSRSGWVFGGGTKLTVLG
B13: C6ML3-24 (scFv)
scFv: QVQLLQSGAELKKPGESLKISCKGSGYSFTSYWIAWVRQMPGKGLEYMGLIYPGDSDTKYSPSFQGQVTISVDKSVSTAYLQWSSLKPSDSAVYFCARHDVGYCSSSNCAKWPEYFQHWGQGTLVTVSSGGGGSGGGGSGGGGSQSVLTQPPSVSAAPGQKVTISCSGSSSNIGNNYVSWYQQLPGTAPKLLIYGHTNRPAGVPDRFSGSKSGTSASLAISGFRSEDEADYYCAAWDEQIFGWVFGGGTKLTVLG
B14: C6ML3-18 (scFv)
scFv: QVQLLQSGAELKKPGESLKISCKGSGYSFTSYWIAWVRQMPGKGLEYMGLIYPGDSDTKYSPSFQGQVTISVDKSVSTAYLQWSSLKPSDSAVYFCARHDVGYCSSSNCAKWPEYFQHWGQGTLVTVSSGGGGSGGGGSGGGGSQSVLTQPPSVSAAPGQKVTISCSGSSSNIGNNYVSWYQQLPGTAPKLLIYGHTNRPAGVPDRFSGSKSGTSASLAISGFRSEDEADYYCASWDASLWGWVFGGGTKLTVLG
B15: C6ML3-21 (scFv)
scFv: QVQLLQSGAELKKPGESLKISCKGSGYSFTSYWIAWVRQMPGKGLEYMGLIYPGDSDTKYSPSFQGQVTISVDKSVSTAYLQWSSLKPSDSAVYFCARHDVGYCSSSNCAKWPEYFQHWGQGTLVTVSSGGGGSGGGGSGGGGSQSVLTQPPSVSAAPGQKVTISCSGSSSNIGNNYVSWYQQLPGTAPKLLIYGHTNRPAGVPDRFSGSKSGTSASLAISGFRSEDEADYYCAAWDYSQSGWVFGGGTKLTVLG
B16: C6ML3-28 (scFv)
scFv: QVQLLQSGAELKKPGESLKISCKGSGYSFTSYWIAWVRQMPGKGLEYMGLIYPGDSDTKYSPSFQGQVTISVDKSVSTAYLQWSSLKPSDSAVYFCARHDVGYCSSSNCAKWPEYFQHWGQGTLVTVSSGGGGSGGGGSGGGGSQSVLTQPPSVSAAPGQKVTISCSGSSSNIGNNYVSWYQQLPGTAPKLLIYGHTNRPAGVPDRFSGSKSGTSASLAISGFRSEDEADYYCASWDYALSGWVFGGGTKLTVLG

In one assay the target is T1, c-erbB-2 ECD with a Ser-Gly-His6 C-terminal fusion (UniProt P04626 23-652).
T1 construct: extracellular domain; Expressed from CHO cells, IMAC purified; coupled to a CM5 chip, coated on plates, or biotinylated with NHS-LC-biotin; also called c-erbB-2 extracellular domain; biotinylated c-erbB-2 ECD
Nature of the assay: SPR BIAcore.
B1 displayed a dissociation constant Kd of 2.3 nM and a koff of 0.0014 s⁻¹.

The molecule B2 showed a Kd of 4.3 nM and a koff of 0.002 s⁻¹.

Turning to B3, binding was characterised by a dissociation constant (Kd) of 2.8 nM and the koff was found to be 0.002 s⁻¹.

B4 registered a Kd of 6.7 nM and a koff of 0.002 s⁻¹.

Another assay deals with T1, c-erbB-2 ECD with a Ser-Gly-His6 …. Nature of the assay: SPR BIAcore. This is another data set of the same source. The protocol:
All assays were performed in triplicate. Briefly, […] of radioiodinated sFv was added to 5×10^6 SK-OV cells in the presence of increasing concentrations of unlabeled sFv from the same preparation. After a 30 minute incubation at 20° C., the samples were washed with PBS at 4° C. and centrifuged at 500 g. The amount of labeled sFv bound to the cells was determined by counting the pellets in a gamma counter and the K_a, and K_d were calculated using the EBDA program (V 2.0, G. A. McPherson, 1983). The K_d of all the other isolated sFv were determined using surface plasmon resonance in a BIAcore (Pharmacia). In a BIAcore flow cell, approximately 1400 resonance units (RU) of c-erbB-2 ECD (25 μg/ml in 10 mM sodium acetate, pH 4.5) was coupled to a CM5 sensor chip (Johnsson et al. (1991), supra). Association and dissociation-rates were measured under continuous flow of […] using a concentration range from 50 to 800 nM. Rate constant $kon$ was determined from a plot of (1(dR/dt))/t vs concentration (Karlsson et al. (1991), supra). Rate constant $Hoff$ was determined from the dissociation part of the sensorgram at the highest concentration of sFv analyzed.
Dashes indicate sequence identity. Mutations arising from PCR error and located outside V_H CDR3 are listed under the heading other mutations. F = frequency of isolated scFv. *$koff$ determined from unpurified scFv samples. Underline indicates mutated residue.
For orientation: In SPR one partner is held on a chip, and binding of the other changes the refractive index at the surface.
For B5, the affinity, expressed as Kd, was 0.35 nM and the koff stood at 0.00018 s⁻¹.

B6 displayed a Kd of 16 nM and a koff of 0.0063 s⁻¹.

Another assay has the same target. In words: SPR BIAcore. This is another data set of the same source.
In turn, B7 returned an equilibrium dissociation constant (Kd) of 7.4 nM and a koff of 0.0044 s⁻¹.

B8: the affinity, expressed as Kd, was 5 nM and the koff is 0.0017 s⁻¹.

For B9, binding was put at a Kd of 5 nM and the koff turned out to be 0.0017 s⁻¹.

For the molecule B10, binding was put at a Kd of 8.3 nM and the koff is 0.0036 s⁻¹.

In turn, B11 displayed a Kd of 3 nM and a koff of 0.0014 s⁻¹.

Molecule B12 came in with a Kd of 8.3 nM and an off-rate (koff) of 0.005 s⁻¹.

With B13, the equilibrium dissociation constant (Kd) came to 12.4 nM and the koff stood at 0.0079 s⁻¹.

Turning to B14, the Kd worked out at 2.4 nM and the koff came to 0.00062 s⁻¹.

The molecule B15 returned a Kd of 4.5 nM and a koff of 0.0022 s⁻¹.

B16 had a Kd of 2.5 nM and a koff of 0.0017 s⁻¹.
